Reference: paper PMC12640004
Positions count from the first letter of the chain named.

B1: JrIPT1 bioProbe (wild type) (dsDNA)
DNA 1: ATCATACTGATGGAGGAGGGCGGTCCCGAATTTATATATATAGTTTCTAC
DNA 2: GTAGAAACTATATATATAAATTCGGGACCGCCCTCCTCCATCAGTATGAT
B2: JrIPT1 mbioProbe (GCC-box mutant) (dsDNA)
DNA 1: B1 DNA 1 with G16T, G18T, G19T, G20T, G22T, G23T
DNA 2: B1 DNA 2 with C28A, C29A, C31A, C32A, C33A, C35A

Target: JrERF113-HIS (Juglans regia)
Test: EMSA

Row | Binder | binding result
1 | B1 | binds
2 | B2 | no binding
